Stoichiometry N data for 1 substance are collected here from paper PMC8420761.

The target of the experiment is Mycobacterium tuberculosis H37Rv HigA2 antitoxin (Mycobacterium tuberculosis H37Rv) (UniProt O53467). The experiment in a line: not stated; in solution; purified MtHigA2.

“Mycobacterium tuberculosis H37Rv HigA2 antitoxin (from UniProt O53467 1-101) (natural protein)”: the stoichiometry N is 2.

In general, stoichiometry N refers to a count of units in the complex or per binding partner.
